Experimental data: the supplement of paper PMC5998384

How the values were obtained:
[1] = tested on: HeLa Kyoto; test: solubility in G1/S (NP-40 vs SDS abundance) (log2 ratio); higher = more soluble; conditions: cell cycle stage: G1/S
[2] = tested on: HeLa Kyoto; test: thermal stability score vs G1/S (z-score of summed log2 fold changes over temperatures); higher = more thermally stable than in G1/S
[3] = tested on: HeLa Kyoto; test: melting temperature (median over replicates), in situ; higher = more thermally stable
[4] = tested on: HeLa Kyoto; test: solubility change mitosis vs G1/S (difference of NP-40 vs SDS log2 ratios) (log2 ratio difference); higher = more soluble in mitosis
[5] = cell cycle stage: early G1 (4.5 h after nocodazole release)
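Wherever melting temperature (median over replicates), in situ is given: HeLa Kyoto cells synchronized by double thymidine or nocodazole block, proteins quantified by TMT10plex mass spectrometry, three independent biological replicates.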
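Wherever solubility change mitosis vs G1/S (difference of NP-40 vs SDS log2 ratios) is given: synchronized HeLa Kyoto cells (double thymidine block for G1/S, nocodazole release for mitosis), protein amounts in NP-40 versus SDS lysates quantified by mass spectrometry, three biological replicates.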
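Wherever solubility in G1/S (NP-40 vs SDS abundance) is given: HeLa Kyoto cells arrested at G1/S by double thymidine block, proteins quantified by TMT10plex mass spectrometry in mild NP-40 versus SDS extracts, three biological replicates.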
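Wherever thermal stability score vs G1/S (z-score of summed log2 fold changes over temperatures) is given: synchronized HeLa Kyoto cells, proteins quantified by TMT10plex mass spectrometry, three biological replicates, mitosis taken 0.5 h after nocodazole release, G1/S directly after double thymidine block.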

NLE1, sequence (chain, as listed by the source): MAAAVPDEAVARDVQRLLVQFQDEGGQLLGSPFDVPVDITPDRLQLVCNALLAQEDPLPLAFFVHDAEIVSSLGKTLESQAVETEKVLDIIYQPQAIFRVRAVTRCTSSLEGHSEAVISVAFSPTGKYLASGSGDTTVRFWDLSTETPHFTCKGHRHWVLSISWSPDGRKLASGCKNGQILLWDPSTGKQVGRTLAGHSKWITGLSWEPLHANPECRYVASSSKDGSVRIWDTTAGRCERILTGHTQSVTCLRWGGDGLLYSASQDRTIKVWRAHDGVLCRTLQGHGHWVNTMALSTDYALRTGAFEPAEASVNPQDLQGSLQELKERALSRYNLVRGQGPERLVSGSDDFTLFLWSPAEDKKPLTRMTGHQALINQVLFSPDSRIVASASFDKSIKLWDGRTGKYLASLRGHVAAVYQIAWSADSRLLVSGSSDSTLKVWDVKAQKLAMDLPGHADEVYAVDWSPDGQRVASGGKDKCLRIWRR
PRRC2A, sequence (chain, as listed by the source): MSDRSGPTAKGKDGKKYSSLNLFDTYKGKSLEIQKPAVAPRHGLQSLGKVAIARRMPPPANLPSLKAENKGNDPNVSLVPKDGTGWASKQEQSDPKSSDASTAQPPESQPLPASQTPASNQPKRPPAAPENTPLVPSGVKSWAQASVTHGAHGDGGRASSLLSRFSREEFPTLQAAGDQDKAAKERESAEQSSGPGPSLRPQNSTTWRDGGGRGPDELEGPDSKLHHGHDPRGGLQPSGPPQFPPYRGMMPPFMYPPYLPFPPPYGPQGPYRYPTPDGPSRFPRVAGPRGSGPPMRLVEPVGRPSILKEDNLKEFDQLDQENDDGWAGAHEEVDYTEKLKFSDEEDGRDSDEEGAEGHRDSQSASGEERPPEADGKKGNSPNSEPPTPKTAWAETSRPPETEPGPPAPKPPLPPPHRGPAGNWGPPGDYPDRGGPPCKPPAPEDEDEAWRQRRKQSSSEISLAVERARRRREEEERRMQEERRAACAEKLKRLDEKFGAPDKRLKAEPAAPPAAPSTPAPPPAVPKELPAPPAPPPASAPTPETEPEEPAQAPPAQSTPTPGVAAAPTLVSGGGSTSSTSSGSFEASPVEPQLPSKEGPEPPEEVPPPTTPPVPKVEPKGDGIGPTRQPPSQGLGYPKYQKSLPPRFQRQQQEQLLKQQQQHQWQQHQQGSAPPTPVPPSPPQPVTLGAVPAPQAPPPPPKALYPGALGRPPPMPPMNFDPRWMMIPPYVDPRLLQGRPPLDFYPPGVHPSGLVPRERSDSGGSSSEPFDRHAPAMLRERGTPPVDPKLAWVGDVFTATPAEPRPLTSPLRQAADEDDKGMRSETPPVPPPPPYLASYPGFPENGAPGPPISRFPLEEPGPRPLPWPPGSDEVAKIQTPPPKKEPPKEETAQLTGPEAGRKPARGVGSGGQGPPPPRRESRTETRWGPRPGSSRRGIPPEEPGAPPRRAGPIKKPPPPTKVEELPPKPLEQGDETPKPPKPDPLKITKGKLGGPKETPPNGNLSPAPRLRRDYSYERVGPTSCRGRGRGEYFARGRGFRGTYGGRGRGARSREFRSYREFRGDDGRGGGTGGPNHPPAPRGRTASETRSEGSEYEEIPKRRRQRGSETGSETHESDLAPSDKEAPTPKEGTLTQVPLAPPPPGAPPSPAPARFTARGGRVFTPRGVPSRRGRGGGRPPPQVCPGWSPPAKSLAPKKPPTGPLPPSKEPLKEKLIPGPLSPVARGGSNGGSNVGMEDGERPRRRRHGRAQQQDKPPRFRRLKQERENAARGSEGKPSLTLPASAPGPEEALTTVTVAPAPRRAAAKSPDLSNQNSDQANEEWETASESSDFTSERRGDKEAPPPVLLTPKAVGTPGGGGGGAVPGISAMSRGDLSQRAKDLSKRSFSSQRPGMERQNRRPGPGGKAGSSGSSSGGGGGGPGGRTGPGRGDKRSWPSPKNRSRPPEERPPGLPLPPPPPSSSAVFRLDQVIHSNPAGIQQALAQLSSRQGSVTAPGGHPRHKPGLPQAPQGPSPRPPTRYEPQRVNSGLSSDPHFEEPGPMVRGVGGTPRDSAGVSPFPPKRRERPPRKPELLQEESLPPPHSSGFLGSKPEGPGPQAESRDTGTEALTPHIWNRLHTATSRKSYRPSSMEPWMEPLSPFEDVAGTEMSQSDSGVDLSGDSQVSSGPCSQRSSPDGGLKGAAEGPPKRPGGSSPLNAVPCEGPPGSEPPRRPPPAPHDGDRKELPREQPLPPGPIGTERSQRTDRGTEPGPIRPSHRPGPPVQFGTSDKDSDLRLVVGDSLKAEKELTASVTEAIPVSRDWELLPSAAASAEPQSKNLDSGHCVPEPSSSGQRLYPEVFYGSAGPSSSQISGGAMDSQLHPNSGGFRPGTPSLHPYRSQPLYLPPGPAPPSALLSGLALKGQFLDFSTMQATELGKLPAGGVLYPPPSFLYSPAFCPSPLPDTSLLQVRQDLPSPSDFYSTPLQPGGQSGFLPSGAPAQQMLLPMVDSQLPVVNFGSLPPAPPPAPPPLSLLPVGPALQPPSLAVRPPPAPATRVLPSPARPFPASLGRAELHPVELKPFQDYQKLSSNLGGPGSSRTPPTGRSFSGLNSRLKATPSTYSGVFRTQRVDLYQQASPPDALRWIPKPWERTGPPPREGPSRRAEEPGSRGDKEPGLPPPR
PCYT1A, sequence (chain, as listed by the source): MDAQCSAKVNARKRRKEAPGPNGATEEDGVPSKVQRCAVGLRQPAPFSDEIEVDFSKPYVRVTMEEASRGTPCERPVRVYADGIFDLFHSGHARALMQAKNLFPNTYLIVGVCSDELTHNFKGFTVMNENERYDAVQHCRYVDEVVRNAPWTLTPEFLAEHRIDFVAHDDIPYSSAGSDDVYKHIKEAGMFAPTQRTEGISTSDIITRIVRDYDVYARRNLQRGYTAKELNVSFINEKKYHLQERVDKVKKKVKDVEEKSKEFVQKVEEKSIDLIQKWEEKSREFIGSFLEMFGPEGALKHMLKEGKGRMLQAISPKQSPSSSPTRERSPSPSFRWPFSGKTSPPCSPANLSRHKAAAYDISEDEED
NCOA3, sequence (chain, as listed by the source): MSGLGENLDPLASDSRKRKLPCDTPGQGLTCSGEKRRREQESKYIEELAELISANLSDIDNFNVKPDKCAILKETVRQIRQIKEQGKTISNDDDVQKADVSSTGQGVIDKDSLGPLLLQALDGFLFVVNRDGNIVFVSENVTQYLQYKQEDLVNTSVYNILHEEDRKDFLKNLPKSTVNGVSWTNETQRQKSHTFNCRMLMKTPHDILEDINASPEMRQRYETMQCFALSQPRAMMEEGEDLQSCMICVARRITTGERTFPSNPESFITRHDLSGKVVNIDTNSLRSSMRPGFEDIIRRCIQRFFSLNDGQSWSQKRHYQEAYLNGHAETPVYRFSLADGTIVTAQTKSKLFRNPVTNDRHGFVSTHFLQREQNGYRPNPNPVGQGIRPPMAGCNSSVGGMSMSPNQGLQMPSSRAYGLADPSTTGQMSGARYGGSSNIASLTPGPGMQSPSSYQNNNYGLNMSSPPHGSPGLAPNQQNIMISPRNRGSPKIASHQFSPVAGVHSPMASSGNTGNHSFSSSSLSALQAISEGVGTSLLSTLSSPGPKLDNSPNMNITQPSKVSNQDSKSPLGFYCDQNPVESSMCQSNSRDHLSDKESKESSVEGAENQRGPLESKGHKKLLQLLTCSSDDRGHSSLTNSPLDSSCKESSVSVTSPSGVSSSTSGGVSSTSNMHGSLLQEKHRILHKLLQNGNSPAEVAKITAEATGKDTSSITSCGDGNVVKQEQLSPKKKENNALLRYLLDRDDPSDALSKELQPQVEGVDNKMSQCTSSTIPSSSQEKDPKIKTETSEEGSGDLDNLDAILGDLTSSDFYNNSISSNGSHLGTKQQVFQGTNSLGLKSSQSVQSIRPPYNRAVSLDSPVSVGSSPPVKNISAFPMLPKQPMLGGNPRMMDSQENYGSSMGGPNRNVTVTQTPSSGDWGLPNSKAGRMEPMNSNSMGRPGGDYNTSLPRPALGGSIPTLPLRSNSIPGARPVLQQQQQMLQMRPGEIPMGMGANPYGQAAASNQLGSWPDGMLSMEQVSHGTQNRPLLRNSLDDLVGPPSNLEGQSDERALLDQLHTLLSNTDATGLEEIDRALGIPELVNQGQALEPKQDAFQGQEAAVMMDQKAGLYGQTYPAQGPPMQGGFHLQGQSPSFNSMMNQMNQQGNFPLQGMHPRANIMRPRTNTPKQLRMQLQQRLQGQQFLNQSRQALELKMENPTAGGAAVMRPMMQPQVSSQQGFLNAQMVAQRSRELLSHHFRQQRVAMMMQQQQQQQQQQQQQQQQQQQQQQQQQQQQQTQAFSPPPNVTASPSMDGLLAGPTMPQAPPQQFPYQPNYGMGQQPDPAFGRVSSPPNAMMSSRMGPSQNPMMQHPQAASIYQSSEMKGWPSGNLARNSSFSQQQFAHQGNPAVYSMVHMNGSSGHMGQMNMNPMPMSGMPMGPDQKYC
POLD2, sequence (chain, as listed by the source): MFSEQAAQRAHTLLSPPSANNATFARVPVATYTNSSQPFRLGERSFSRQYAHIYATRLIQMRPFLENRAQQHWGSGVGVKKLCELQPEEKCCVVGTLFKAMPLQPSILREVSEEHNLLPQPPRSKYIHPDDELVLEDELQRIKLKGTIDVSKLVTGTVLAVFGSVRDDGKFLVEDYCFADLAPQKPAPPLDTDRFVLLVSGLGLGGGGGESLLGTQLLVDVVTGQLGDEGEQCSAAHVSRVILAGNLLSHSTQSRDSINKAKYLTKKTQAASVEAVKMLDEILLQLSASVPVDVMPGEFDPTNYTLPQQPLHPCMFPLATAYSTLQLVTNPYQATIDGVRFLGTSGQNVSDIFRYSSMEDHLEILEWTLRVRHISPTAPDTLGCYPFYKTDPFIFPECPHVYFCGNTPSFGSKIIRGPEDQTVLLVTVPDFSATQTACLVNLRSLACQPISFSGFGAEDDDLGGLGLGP
PGRMC1, sequence (chain, as listed by the source): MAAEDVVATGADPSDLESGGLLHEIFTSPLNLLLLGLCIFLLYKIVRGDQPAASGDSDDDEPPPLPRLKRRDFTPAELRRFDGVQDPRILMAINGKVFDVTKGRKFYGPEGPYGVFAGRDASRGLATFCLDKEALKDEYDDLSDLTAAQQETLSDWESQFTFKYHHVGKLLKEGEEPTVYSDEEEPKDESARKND

Row | Substance | solubility in G1/S (log2) [1] | thermal stability score [2, 5] | thermal stability score ([2]; cell cycle stage: mitosis) | melting temperature ([3]; cell cycle stage: G1/S) [°C] | melting temperature ([3]; cell cycle stage: mitosis) [°C] | solubility change mitosis (log2) [4]
1 | MYDNMSTMVYIKEDKLEKLTQDEIISKTKQVIQGLEALKNEHNSILQSLLETLKCLKKDDESNLVEEKSNMIRKSLEMLELGLSEAQVMMALSNHLNAVESEKQKLRAQVRRLCQENQWLRDELANTQQKLQKSEQSVAQLEEEKKHLEFMNQLKKYDDDISPSEDKDTDSTKEPLDDLFPNDEDDPGQGIQQQHSSAAAAAQQGGYEIPARLRTLHNLVIQYASQGRYEVAVPLCKQALEDLEKTSGHDHPDVATMLNILALVYRDQNKYKDAANLLNDALAIREKTLGKDHPAVAATLNNLAVLYGKRGKYKEAEPLCKRALEIREKVLGKDHPDVAKQLNNLALLCQNQGKYEEVEYYYQRALEIYQTKLGPDDPNVAKTKNNLASCYLKQGKFKQAETLYKEILTRAHEREFGSVDDENKPIWMHAEEREECKGKQKDGTSFGEYGGWYKACKVDSPTVTTTLKNLGALYRRQGKFEAAETLEEAAMRSRKQGLDNVHKQRVAEVLNDPENMEKRRSRESLNVDVVKYESGPDGGEEVSMSVEWNGGVSGRASFCGKRQQQQWPGRRHR [KLC1] | 0.299 | 0.136 | 0.172 | 51.6 | 51.4 | -0.175
2 | MYHNSSQKRHWTFSSEEQLARLRADANRKFRCKAVANGKVLPNDPVFLEPHEEMTLCKYYEKRLLEFCSVFKPAMPRSVVGTACMYFKRFYLNNSVMEYHPRIIMLTCAFLACKVDEFNVSSPQFVGNLRESPLGQEKALEQILEYELLLIQQLNFHLIVHNPYRPFEGFLIDLKTRYPILENPEILRKTADDFLNRIALTDAYLLYTPSQIALTAILSSASRAGITMESYLSESLMLKENRTCLSQLLDIMKSMRNLVKKYEPPRSEEVAVLKQKLERCHSAELALNVITKKRKGYEDDDYVSKKSKHEEEEWTDDDLVESL [CCNH] | 0.259 | 0.868 | 1.73 | 51.1 | 52.2 | -0.195
3 | MYLVAGDRGLAGCGHLLVSLLGLLLLLARSGTRALVCLPCDESKCEEPRNCPGSIVQGVCGCCYTCASQRNESCGGTFGIYGTCDRGLRCVIRPPLNGDSLTEYEAGVCEDENWTDDQLLGFKPCNENLIAGCNIINGKCECNTIRTCSNPFEFPSQDMCLSALKRIEEEKPDCSKARCEVQFSPRCPEDSVLIEGYAPPGECCPLPSRCVCNPAGCLRKVCQPGNLNILVSKASGKPGECCDLYECKPVFGVDCRTVECPPVQQTACPPDSYETQVRLTADGCCTLPTRCECLSGLCGFPVCEVGSTPRIVSRGDGTPGKCCDVFECVNDTKPACVFNNVEYYDGDMFRMDNCRFCRCQGGVAICFTAQCGEINCERYYVPEGECCPVCEDPVYPFNNPAGCYANGLILAHGDRWREDDCTFCQCVNGERHCVATVCGQTCTNPVKVPGECCPVCEEPTIITVDPPACGELSNCTLTGKDCINGFKRDHNGCRTCQCINTEELCSERKQGCTLNCPFGFLTDAQNCEICECRPRPKKCRPIICDKYCPLGLLKNKHGCDICRCKKCPELSCSKICPLGFQQDSHGCLICKCREASASAGPPILSGTCLTVDGHHHKNEESWHDGCRECYCLNGREMCALITCPVPACGNPTIHPGQCCPSCADDFVVQKPELSTPSICHAPGGEYFVEGETWNIDSCTQCTCHSGRVLCETEVCPPLLCQNPSRTQDSCCPQCTDQPFRPSLSRNNSVPNYCKNDEGDIFLAAESWKPDVCTSCICIDSVISCFSESCPSVSCERPVLRKGQCCPYCIEDTIPKKVVCHFSGKAYADEERWDLDSCTHCYCLQGQTLCSTVSCPPLPCVEPINVEGSCCPMCPEMYVPEPTNIPIEKTNHRGEVDLEVPLWPTPSENDIVHLPRDMGHLQVDYRDNRLHPSEDSSLDSIASVVVPIIICLSIIIAFLFINQKKQWIPLLCWYRTPTKPSSLNNQLVSVDCKKGTRVQVDSSQRMLRIAEPDARFSGFYSMQKQNHLQADNFYQTV [CRIM1] | -0.0525 | -2.44 | -0.713 | 53.8 | 54.9 | -0.0635
4 | MYO5B | -0.588 | -0.778 | -0.163 | 49.7 | 53.1 | 0.158
5 | MYO5C | -0.665 | 0.384 | 1.14 | 50.9 |  | 0.291
6 | MYPESTTGSPARLSLRQTGSPGMIYSTRYGSPKRQLQFYRNLGKSGLRVSCLGLGTWVTFGGQITDEMAEQLMTLAYDNGINLFDTAEVYAAGKAEVVLGNIIKKKGWRRSSLVITTKIFWGGKAETERGLSRKHIIEGLKASLERLQLEYVDVVFANRPDPNTPMEETVRAMTHVINQGMAMYWGTSRWSSMEIMEAYSVARQFNLTPPICEQAEYHMFQREKVEVQLPELFHKIGVGAMTWSPLACGIVSGKYDSGIPPYSRASLKGYQWLKDKILSEEGRRQQAKLKELQAIAERLGCTLPQLAIAWCLRNEGVSSVLLGASNADQLMENIGAIQVLPKLSSSIIHEIDSILGNKPYSKKDYRS [KCNAB2] | 0.117 | -0.252 | 3.11 | 60.3 | 58.8 | -0.201
7 | MYRALRLLARSRPLVRAPAAALASAPGLGGAAVPSFWPPNAARMASQNSFRIEYDTFGELKVPNDKYYGAQTVRSTMNFKIGGVTERMPTPVIKAFGILKRAAAEVNQDYGLDPKIANAIMKAADEVAEGKLNDHFPLVVWQTGSGTQTNMNVNEVISNRAIEMLGGELGSKIPVHPNDHVNKSQSSNDTFPTAMHIAAAIEVHEVLLPGLQKLHDALDAKSKEFAQIIKIGRTHTQDAVPLTLGQEFSGYVQQVKYAMTRIKAAMPRIYELAAGGTAVGTGLNTRIGFAEKVAAKVAALTGLPFVTAPNKFEALAAHDALVELSGAMNTTACSLMKIANDIRFLGSGPRSGLGELILPENEPGSSIMPGKVNPTQCEAMTMVAAQVMGNHVAVTVGGSNGHFELNVFKPMMIKNVLHSARLLGDASVSFTENCVVGIQANTERINKLMNESLMLVTALNPHIGYDKAAKIAKTAHKNGSTLKETAIELGYLTAEQFDEWVKPKDMLGPK [FH] | 0.478 | 1.14 | -0.915 | 53.5 | 53.4 | 0.0382
8 | NCOA3 | 0.355 | 0.836 | 1.22 | 51.2 | 49.8 | -0.0688
9 | NFIA | -0.00202 | 0.325 | 1.68 | 59 | 62.1 | 0.0442
10 | NIPBL | -0.446 | 2.24 | 6.45 | 47.3 | 49.3 | 0.263
11 | NLE1 | -0.35 | -1.88 | -4.55 | 53 | 54.2 | 0.0775
12 | NUP210 | -0.0147 | 6.11 | 9.9 | 54.3 | 53.7 | 0.0421
13 | PACS1 | 0.119 | -0.425 | 0.437 | 50.8 | 51.4 | -0.211
14 | PCMT1 | 0.427 | 0.536 | -0.469 | 54 | 54.8 | 0.147
15 | PCYT1A | 0.341 | 2.25 | 3.79 | 51.4 | 52.4 | -0.0895
16 | PDE4DIP | 0.0173 | 0.534 | 0.401 | 51.6 |  | 0.0943
17 | PGRMC1 | 0.15 | -0.433 | -0.0697 | 53.1 | 52.8 | 0.219
18 | PKN2 | -0.0314 | 0.95 | 1.36 | 48.3 | 49.3 | -0.163

Row | Substance | solubility in G1/S (log2) [1] | thermal stability score [2, 5] | thermal stability score ([2]; cell cycle stage: mitosis) | melting temperature ([3]; cell cycle stage: G1/S) [°C] | melting temperature ([3]; cell cycle stage: mitosis) [°C] | solubility change mitosis (log2) [4]
19 | PLPP2 | -0.0273 | 0.347 | -1.64 | 55 | 54.3 | -0.279
20 | PLXNB2 | -0.0357 | -1.95 | -2.08 | 52.2 | 51.1 | -0.0477
21 | PLXND1 | 0.0061 | 0.367 | 0.672 | 49.5 | 48.7 | -0.0638
22 | POLD2 | 0.263 | 1.48 | 2.07 | 49.9 | 49.5 | -0.136
23 | POLE | -0.355 | 0.724 | 1.31 | 49.5 | 51.5 | -0.0472
24 | PRRC2A | -0.105 | 0.422 | 0.00992 | 53.7 | 55.1 | 0.0463
25 | RIF1 | -0.28 | 2.16 | 5.52 | 47.3 | 49.6 | 0.0253
26 | RNGTT | -0.301 | 0.407 | 0.579 | 47.7 | 48.7 | -0.0839
27 | SAR1A | 0.207 | 2.01 | 1.85 | 52 | 52.8 | -0.239
28 | SDE2 | 0.563 | 2.03 | 1.98 | 49.5 | 49.5 | 0.0378
29 | SEPHS1 | 0.503 | -1.3 | -1.24 | 58.8 | 58.8 | -0.0554
30 | SETD2 | -0.43 | 0.914 | 2.05 | 48.1 | 50.2 | 0.19
31 | SLC15A4 | 0.0784 | -2.84 | -2.51 | 55.4 | 56.5 | -0.171
32 | SLC27A2 | -0.335 | 2.25 | 2.44 | 50 | 50.3 | -0.133
33 | SMG1 | -0.17 | -0.61 | -0.143 | 50.3 | 50.2 | -0.102
34 | SNRNP200 | -0.756 | 2.93 | 4.86 | 50 | 50.8 | 0.171
35 | THOC2 | -0.681 | -3.49 | -0.552 | 48.6 | 49.5 | 0.221
36 | TOR1AIP1 | -0.0913 | 1.27 | 1.41 | 54.4 | 54.9 | 0.144
